# According to publication PMC7228087, “Atco, a yeast mitochondrial complex of Atp9 and Cox6, is an assembly intermediate of the ATP synthase” (PLoS ONE, 2020):
# T1: Cox6 with a tandem hemagglutinin plus protein C tag (S. cerevisiae, UniProt P00427 41-148)
# T1 construct: Cox6, nuclear-encoded imported structural subunit of cytochrome oxidase, S. cerevisiae; also called Cox6-HAC; COX6-HAC; source: expressed in S. cerevisiae (cox6::URA3 trp1::pG71/ST9), in digitonin extract of mitochondria
# T1 sequence (looked up): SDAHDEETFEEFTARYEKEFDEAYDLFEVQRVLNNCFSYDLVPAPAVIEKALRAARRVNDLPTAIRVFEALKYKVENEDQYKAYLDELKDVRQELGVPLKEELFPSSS
# B1: Atp9 (natural protein, UniProt P61829 1-76, looked up)
# chain: MQLVLAAKYIGAGISTIGLLGAGIGIAIVFAALINGVSRNPSIKDTVFPMAILGFALSEATGLFCLMVSFLLLFGV
# notes: Atp9, mitochondrially encoded subunit of the ATP synthase ring, S. cerevisiae; wild type with native cysteine at residue 65; The introduction says that the ring of the ATP synthase has 10 copies of Atp9; In Atco the protein is oligomeric but not a ring; also called A9; Atp9 ring; source: submitochondrial particles for Western blots
# Target: T1, Cox6 with a tandem hemagglutinin plus …
# Test: co-IP; as a1 but from an oxa1 null mutant expressing Cox6-HAC; radiolabel quantified as ratio to the OXA1 strain
# Conditions: partners not purified
binder,measurement,value
B1,"ratio (Δoxa1/OXA1) of radiolabel in the PC eluate, SDS-PAGE",0.124 ratio
